EC50 data for one substance are collected here from US20210309747A1.

The target of this test is human PD-L1 on Raji cells (human) (UniProt Q9NZQ7). Kind of test: flow cytometry blocking assay on Raji-PDL1 cells; blocked ligand: biotinylated Avi- and His-tag human PD1 protein at 3 ug/mL, Streptavidin-PE, MFI; isotype control, the fitted curve falls only from MFI about 320 to about 240. Background: In flow cytometry, cells or beads pass a laser one at a time.
Sequence of human PD-L1 on Raji cells (human) (Q9NZQ7 19-290): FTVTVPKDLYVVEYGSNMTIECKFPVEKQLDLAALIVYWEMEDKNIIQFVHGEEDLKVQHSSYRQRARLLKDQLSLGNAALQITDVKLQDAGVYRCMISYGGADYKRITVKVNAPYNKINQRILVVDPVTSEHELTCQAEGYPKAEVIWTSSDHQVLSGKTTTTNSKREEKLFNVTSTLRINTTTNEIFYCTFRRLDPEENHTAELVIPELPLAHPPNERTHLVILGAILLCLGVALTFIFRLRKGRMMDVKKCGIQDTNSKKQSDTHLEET

For orientation: EC50 means the concentration giving half of the maximal effect. Higher therefore signals lower potency in that assay. The substance IgG (antibody) displayed an EC50 of 0.45 nM.
